From patent US20080171037A1 (Genentech, published 2008)

Molecular target: T1, ECD of the Apo-2L receptor, DR5 (UniProt O14763 56-210, limits assumed)
T1 construct: extracellular domain; Comparison receptor
Assay: co-immunoprecipitation (anti-Flag sepharose or nickel-sepharose), Western blot with nickel-conjugated HRP
Procedure: The respective ligands (1 μg/ml) and receptors (1 μg/ml) were incubated for 1 hour at room temperature. The reaction mixtures were subjected to precipitation with anti-Flag antibody conjugated to sepharose beads (Kodak) (FIG. 8A, left) or nickel-sepharose (Qiagen) (FIG. 8A, right) by overnight incubation at 4° C. according to manufacturer's instructions and resolved by gel electrophoresis. The ligands were visualized by Western blot analysis with nickel-conjugated horseradish peroxidase. In FIG. 8A, molecular weight markers (kDa) are indicated on the left.

B1: His-tagged soluble Apo-3 Ligand (ligand)
chain: MGHHHHHHHHHHSSGHIDDDDKHMRASLSAQEPAQEELVAEEDQDPSELNPQTEESQDPAPFLNRLVRPRRSAPKGRKTRARRAIAAHYEVHPRPGQDGAQAGVDGTVSGWEEARINSSSPLRYNRQIGEFIVTRAGLYYLYCQVHFDEGKAVYLKLDLLVDGVLALRCLEEFSATAASSLGPQLRLCQVSGLLALRPGSSLRIRTLPWAHLKAAPFLTYFGLFQVH
notes: also called histidine tagged soluble Apo-3 Ligand; DNA30879
**Q.** Does B1 bind?
**A.** Result: no binding (tested: 1 µg/ml ligand and 1 µg/ml receptor)
